Test results: patent US20250154262A1

molecular target: hFcγRIIIa-V158 (human) (UniProt P08637); test: SPR (Carterra LSA), protein AG capture
Sequence (P08637 17-208 F176V limits assumed): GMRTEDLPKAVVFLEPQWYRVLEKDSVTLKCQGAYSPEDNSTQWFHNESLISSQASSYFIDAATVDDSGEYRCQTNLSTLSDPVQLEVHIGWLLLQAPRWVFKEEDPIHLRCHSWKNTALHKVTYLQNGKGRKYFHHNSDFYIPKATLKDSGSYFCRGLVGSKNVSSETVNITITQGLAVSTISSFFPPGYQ

Row | Fold-change relative to WT [fold] | Kd [nM] | koff [s⁻¹] | kon [M⁻¹ s⁻¹] | Substance
1 | 3.8 | 77.2 | 0.0285 | 369000 | S298A_A330Y_D376V (antibody)
2 | 2.4 | 123 | 0.0786 | 637000 | A330Y_D376V_Y373W (antibody)
3 | 3.3 | 89.1 | 0.034 | 381000 | H268D_L251W_Y373W_S298A (antibody)
4 | 5.9 | 49.1 | 0.0189 | 385000 | H268D_A330Y_L314K (antibody)
5 | 2.3 | 127 | 0.0308 | 243000 | S298A_A330Y_L251W_D376V (antibody)
6 | 3.4 | 84.4 | 0.0225 | 267000 | H268D_L251F_L314V (antibody)
7 |  | 68.2 |  |  | H268D_L251F_L314T (antibody)
8 | 3.9 | 73.9 | 0.0243 | 328000 | H268D_L251F (antibody)
9 | 4.4 | 66.2 | 0.038 | 574000 | H268D_A330Y_L251W_D376V (antibody)
10 |  | 25.2 |  |  | H268D_L251Q_Y373W_S298A (antibody)
11 | 2.7 | 107 | 0.047 | 438000 | H268D_L251Q (antibody)
12 |  | 67.9 |  |  | A330Y_S267A_D376V_S298A (antibody)
13 | 1.5 | 188 | 0.0564 | 300000 | H268D_L251W_L314M (antibody)
14 |  | 118 |  |  | H268E_L251Q_A339T_L314A (antibody)
15 |  | 51.7 |  |  | H268D_L251W_L314T_S298A (antibody)
16 | 2 | 149 | 0.026 | 174000 | H268D_A330Y_L251W (antibody)
17 |  | 32.1 |  |  | H268D_L251I_A330F_S298A (antibody)
18 |  | 286 |  |  | L314N_S267A_A330M_D376T (antibody)
19 | 2 | 145 | 0.0406 | 279000 | S267D_A330Y_D376V (antibody)
20 | 3.3 | 88.3 | 0.025 | 283000 | H268D_L251F_L314M (antibody)
21 | 4.2 | 69.1 | 0.0269 | 389000 | H268D_L251W_L314M_S298A (antibody)
22 | 4.4 | 65.6 | 0.024 | 366000 | H268D_L251F_L314K (antibody)
23 | 2.3 | 124 | 0.0371 | 298000 | S267D_A330Y_Y373W (antibody)
24 | 1.9 | 151 | 0.065 | 431000 | H268D_L251W_L314M_Y373W (antibody)
25 | 3.3 | 87.8 | 0.0476 | 542000 | H268D_L251W_L314K (antibody)
26 | 3.2 | 91.4 | 0.036 | 394000 | S267D_A330Y_L251W_D376V (antibody)
27 | 3.2 | 90.4 | 0.038 | 421000 | S298A_A330Y_L251W (antibody)
28 | 6.4 | 45.4 | 0.0126 | 278000 | H268D_A339T_S298A (antibody)

Row | Fold-change relative to WT [fold] | Kd [nM] | koff [s⁻¹] | kon [M⁻¹ s⁻¹] | Substance
29 | 7.6 | 38.4 | 0.0198 | 516000 | H268D_L314W_Y373W_A330M (antibody)
30 | 9.4 | 31.1 | 0.119 | 3.83e+06 | H268D_L251W_L314S (antibody)
31 |  | 58.4 |  |  | S298A_A330Y_A339T (antibody)
32 | 2.6 | 111 | 0.0308 | 276000 | H268E_L251W_L314I_A330F (antibody)
33 | 21.9 | 13.3 | 0.0152 | 1.15e+06 | H268D_L251Q_L314E (antibody)
34 | 6.3 | 45.9 | 0.0246 | 536000 | H268D_L251Q_L314G (antibody)
35 | 3.9 | 74.9 | 0.0231 | 309000 | H268D_L251F_L314N (antibody)
36 | 4.8 | 60.7 | 0.0212 | 348000 | H268D_S267D_L251I_A339T (antibody)
37 | 4.1 | 70.2 | 0.0292 | 416000 | H268D_L251Q_Y373W (antibody)
38 | 7.9 | 36.7 | 0.0125 | 340000 | H268D_L251F_L314M_S298A (antibody)
39 | 1.5 | 190 | 0.035 | 184000 | L314V_A330F_Y373W_H268A (antibody)
40 |  | 268 |  |  | S267D_A330Y_L314K (antibody)
41 | 4.1 | 71.7 | 0.025 | 349000 | H268D_A330Y_Y373W (antibody)
42 | 1.8 | 163 | 0.0241 | 148000 | H268D_L251F_L314W (antibody)
43 | 2.7 | 109 | 0.035 | 320000 | S267D_A330Y_A339T (antibody)
44 | 2.3 | 124 | 0.036 | 290000 | S267D_L314W_L251H_D376V (antibody)
45 | 3.3 | 88.4 | 0.0207 | 235000 | S298A_A330Y_L314K (antibody)
46 | 3.3 | 88.2 | 0.0228 | 258000 | H268D_L251F_Y373W (antibody)
47 | 6.3 | 46 | 0.0213 | 463000 | H268D_L251W_S298A (antibody)
48 | 1.7 | 174 | 0.038 | 218000 | L251F_S267A_L314S (antibody)
49 |  | 208 |  |  | S267D_L314T_A339T (antibody)
50 | 5.1 | 57.6 | 0.021 | 365000 | H268E_L314V_L251A_A330M (antibody)
51 |  | 204 |  |  | L251F_A339T_L314S_Y373W (antibody)
52 | 4.4 | 65.8 | 0.0253 | 385000 | H268D_L251F_L314G (antibody)
53 | 3.7 | 79.5 | 0.023 | 289000 | H268D_L251F_L314M_Y373W (antibody)
54 |  | 86.8 |  |  | H268D_L251W_Y373W (antibody)
55 |  | 72.8 |  |  | H268D_L251Q_L314M_Y373W (antibody)
